Measurements as given in article PMC9409194, “Salt Dependence of DNA Binding Activity of Human Transcription Factor Dlx3”.

Target: Dlx3-HD (human, UniProt O60479 129-188)
Assay: NMR (1H/15N-HSQC CSP and imino proton titration); 100 mM NaCl, 35 C; slow exchange; 10 mM sodium phosphate pH 6.0, 100, 250 or 500 mM NaCl, 90% H2O/10% D2O, 35 C
Conditions: protein: recombinant; tags: Ni-NTA purified (His-tag implied); blunt

Chain of Dlx3-HD (O60479 129-188): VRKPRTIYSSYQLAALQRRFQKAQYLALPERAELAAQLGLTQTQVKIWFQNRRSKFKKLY

B1: dlxDNA (dsDNA)
DNA 1: CGTAATTGCC
DNA 2: GGCAATTACG
B1: binds.
